The target in the assay is Aβ42 fibers (Homo sapiens (Human), UniProt P05067 672-713). The experiment in a line: pyrene excimer fluorescence (FIG. 11A legend).

pyrene = pyrene fluorescent label

Sequence of Aβ42 fibers (P05067 672-713 limits assumed): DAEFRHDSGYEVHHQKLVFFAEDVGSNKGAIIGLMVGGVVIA

B1: Peptide probe specific for Aβ (SEQ ID NO:36) labeled at each terminus with pyrene (peptide)
peptide: pyrene-KLVFFAEDVGSNKGAIIGLM-pyrene
notes: also called Aβ peptide probe; dipyrene labeled peptide probe
Consider B1, for which the binding result is given as “binds”.

(Values after US20130108549A1 (ADLYFE, published 2013).)
